Data set [1] deals with T1, hnRNPA1 RNA-binding domain (human, UniProt P09651 1-196). As to the kind of experiment: UV photo-cross-linking.
The target of data set [2] is T1, hnRNPA1 RNA-binding domain. Description: EMSA.

T1 sequence (P09651 1-196): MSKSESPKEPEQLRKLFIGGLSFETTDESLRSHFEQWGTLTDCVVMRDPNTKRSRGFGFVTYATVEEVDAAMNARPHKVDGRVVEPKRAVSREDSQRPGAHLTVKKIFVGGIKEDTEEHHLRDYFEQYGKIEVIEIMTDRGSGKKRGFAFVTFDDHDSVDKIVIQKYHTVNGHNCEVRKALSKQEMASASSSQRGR

Regarding UUAGGGUUAGGG (structured_RNA, 5-bromouridine at position 8 (printed UUAGGGU(BrU)-AGGG)) [BrU 12-mer telomere RNA], the binding result in data set [1] was “binds”. With UUAGGGUUAGGGUUAGGGUUAGGG (structured_RNA) [24-mer telomere RNA], in data set [2], the Kd – broadly, the constant that tells how readily two partners part at equilibrium – is 37.6 nM.
